Measured values: patent US20160251408

Key:
[1] = system: VWF-055 (VWF D′D3-Fc fusion construct; 34 aa VWF linker comprising an a2 region from FVIII)
[2] = system: VWF-034 (VWF D′D3-288XTEN-LVPR-Fc fusion construct)
VWF-034 (VWF D′D3-288XTEN-LVPR-Fc fusion construct), sequence (chain, as listed by the source): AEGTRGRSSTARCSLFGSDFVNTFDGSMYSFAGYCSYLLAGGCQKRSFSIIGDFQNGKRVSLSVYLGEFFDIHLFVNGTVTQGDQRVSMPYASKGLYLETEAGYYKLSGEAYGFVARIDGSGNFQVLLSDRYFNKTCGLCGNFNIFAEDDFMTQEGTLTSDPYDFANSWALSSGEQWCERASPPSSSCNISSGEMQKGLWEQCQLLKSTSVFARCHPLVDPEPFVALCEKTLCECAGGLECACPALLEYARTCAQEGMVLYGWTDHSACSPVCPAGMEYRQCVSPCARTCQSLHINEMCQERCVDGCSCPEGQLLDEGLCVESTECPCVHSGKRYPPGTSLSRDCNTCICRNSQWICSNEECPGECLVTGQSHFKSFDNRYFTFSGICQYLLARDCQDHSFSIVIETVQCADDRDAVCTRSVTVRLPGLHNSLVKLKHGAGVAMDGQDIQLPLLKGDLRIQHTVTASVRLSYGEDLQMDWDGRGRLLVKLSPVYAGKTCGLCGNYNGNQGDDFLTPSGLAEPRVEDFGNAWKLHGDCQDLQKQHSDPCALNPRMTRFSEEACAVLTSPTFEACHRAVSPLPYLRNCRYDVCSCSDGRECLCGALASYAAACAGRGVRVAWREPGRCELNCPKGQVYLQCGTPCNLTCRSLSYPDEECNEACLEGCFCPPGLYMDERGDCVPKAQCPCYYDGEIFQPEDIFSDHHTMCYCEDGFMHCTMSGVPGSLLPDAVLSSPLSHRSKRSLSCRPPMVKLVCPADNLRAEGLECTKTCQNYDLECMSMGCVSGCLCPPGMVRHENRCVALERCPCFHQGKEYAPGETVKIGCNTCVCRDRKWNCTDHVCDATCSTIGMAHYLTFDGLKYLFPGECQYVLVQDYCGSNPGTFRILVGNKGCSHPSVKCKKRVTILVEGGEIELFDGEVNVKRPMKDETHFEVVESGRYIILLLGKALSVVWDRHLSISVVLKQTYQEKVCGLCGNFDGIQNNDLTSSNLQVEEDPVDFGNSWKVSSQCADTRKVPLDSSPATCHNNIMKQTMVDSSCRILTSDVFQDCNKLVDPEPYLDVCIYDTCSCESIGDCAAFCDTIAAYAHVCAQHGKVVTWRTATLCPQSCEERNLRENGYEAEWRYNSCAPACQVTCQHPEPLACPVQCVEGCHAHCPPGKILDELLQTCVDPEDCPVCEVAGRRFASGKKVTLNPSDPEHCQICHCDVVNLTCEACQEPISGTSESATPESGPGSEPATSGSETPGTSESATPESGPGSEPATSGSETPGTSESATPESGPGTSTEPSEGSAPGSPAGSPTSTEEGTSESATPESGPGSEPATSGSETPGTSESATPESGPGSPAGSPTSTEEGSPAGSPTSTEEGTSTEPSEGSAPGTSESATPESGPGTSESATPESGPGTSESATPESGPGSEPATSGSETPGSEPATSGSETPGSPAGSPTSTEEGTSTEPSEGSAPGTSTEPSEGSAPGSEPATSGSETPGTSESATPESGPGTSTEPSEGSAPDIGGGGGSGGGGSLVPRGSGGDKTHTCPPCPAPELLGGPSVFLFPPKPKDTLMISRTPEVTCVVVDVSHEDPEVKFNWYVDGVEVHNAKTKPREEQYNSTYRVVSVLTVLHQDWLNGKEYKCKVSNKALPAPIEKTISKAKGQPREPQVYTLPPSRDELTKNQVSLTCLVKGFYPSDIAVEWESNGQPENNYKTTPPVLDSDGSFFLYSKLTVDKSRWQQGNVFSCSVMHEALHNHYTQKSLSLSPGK

VWF-055 (VWF D′D3-Fc fusion construct; 34 aa VWF linker comprising an a2 region from FVIII), sequence (chain, as listed by the source): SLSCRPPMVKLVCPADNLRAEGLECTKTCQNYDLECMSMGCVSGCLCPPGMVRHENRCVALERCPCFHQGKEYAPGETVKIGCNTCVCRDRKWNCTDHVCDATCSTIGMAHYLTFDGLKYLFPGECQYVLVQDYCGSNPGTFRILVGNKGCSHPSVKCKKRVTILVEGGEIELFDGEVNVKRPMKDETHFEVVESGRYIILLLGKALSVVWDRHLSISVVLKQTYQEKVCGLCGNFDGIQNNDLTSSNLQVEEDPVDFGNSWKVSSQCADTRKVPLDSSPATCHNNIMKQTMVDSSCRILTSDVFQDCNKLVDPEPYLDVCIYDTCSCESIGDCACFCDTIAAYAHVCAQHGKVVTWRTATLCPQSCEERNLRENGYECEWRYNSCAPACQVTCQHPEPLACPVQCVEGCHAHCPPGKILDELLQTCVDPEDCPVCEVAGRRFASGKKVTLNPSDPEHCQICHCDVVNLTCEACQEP

## human alpha-thrombin
[1]
  thrombin cleavage relative to VWF-039 (Biacore): displayed similar thrombin cleavage as VWF-039 construct
[2]
  thrombin cleavage rate relative to VWF-031 (Biacore): displayed slower cleavage compared to VWF-031
